Measured values published in doi:10.1101/2023.10.30.564668 (bioRxiv, 2023).

Biological target: RABV-G domain III (Rabies virus, strain CVS-11 (GenBank …, stabilised))
Assay: crystal structure

B1: CR57 diabody (other)
VH: EVQLVQSGAEVKKPGSSVKVSCKASGGTFNRYTVNWVRQAPGQGLEWMGGIIPIFGTANYAQRFQGRLTITADESTSTAYMELSSLRSDDTAVYFCARENLDNSGTYYYFSGWFDPWGQGTLVTVSS
VL: QSALTQPRSVSGSPGQSVTISCTGTSSDIGGYNFVSWYQQHPGKAPKLMIYDATKRPSGVPDRFSGSKSGNTASLTISGLQAEDEADYYCCSYAGDYTPGVVFGGGTKLTVL
With B1 the “stoichiometry N” value was 2 domain III per diabody.
